In patent US7063946B2, “Methods, reagents, kits and apparatus for protein function analysis” (Meso Scale Technologies, LLC., priority 2001, dated 2006):

How the values were obtained:
Type in all cases: biochemical
pEY (poly Glu-Tyr) = assay: Tyrosine kinase activity assay of immobilized in vitro translated protein towards pEY
Description: Proteins were produced in an in vitro transcription and translation reaction. […] The unbound components of the reaction containing endogenous kinases were removed by three washes with TT-buffer (25 mM Tris-HCl buffer pH 7.4 and 0.004% Triton), two five minutes washings with high-salt wash buffer (25 mM Tris-HCl buffer pH 7.4, 0.004% Triton, 1M NaCl and 5 mM DTT) and 3 more washes with TT-buffer. To these immobilized and purified proteins a tyrosine kinase substrate, 5 nM pEY (poly Glu-Tyr, Sigma, MO), was added in a 50 μl reaction solution containing 5 mM MgCl2, 5 mM MnCl2, 100 μM ATP, 25 mM Tris-HCl buffer pH 7.4, 0.05 mM Na3VO4, 0.004% TritonX-100, 2 mM DTT and EDTA-free protease inhibitor (Roche Molecular Biochemicals). This mixture was incubated with shaking at room temperature overnight to allow phosphorylation of the pEY substrate by the immobilized kinases. Following this incubation, 45 μl of this mixture was transferred to a streptavidin or avidin-coated NPT IPR plate coated with biotinylated anti-phosphotyrosine antibody (PY20, Zymed labs, CA) followed by incubation for 30 minutes at room temperature to allow the binding of the phosphorylated pEY substrate to the PY20 coated NPT plate. Following this binding step, 50 ng Sulfo-TAG labeled anti-phosphotyrosine in buffer containing 25 mM Tris-HCl buffer pH 7.4, 5 mM MgCl2, 0.05 mM Na3VO4, 0.004% TritonX-100, 2 mM DTT and 0.05% IgG was added followed by incubation at room temperature for 30 mm. The unbound reagents were removed by one time washing with water, and the TAG label was detected in presence of 150 μl IPR assay buffer (0.4 mM Gly-Gly buffer, pH 7.8, 1 mM EDTA, 0.1 M TPA). The ECL signals were measured using an imaging plate reader.

pEY = assay: In vitro kinase library screen: activity towards pEY; conditions: 5 ul of expressed protein
Outline: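 Kinases made by in vitro transcription/translation, immobilised on streptavidin/avidin plates and washed with Tris/Triton and high-salt buffers. Incubated overnight at room temperature with 5 nM pEY, 100 µM ATP, Mg2+/Mn2+ and vanadate at pH 7.4. Phospho-pEY captured with biotinylated PY20 and detected by Sulfo-TAG anti-phosphotyrosine ECL.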

[1] = tested on: autophosphorylation (phosphotyrosine); assay: In vitro kinase library screen: autophosphorylation
Outline: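 Biotinylated SYK and EphA7 from in vitro transcription/translation, immobilized on streptavidin/avidin plates; autophosphorylation overnight at room temperature with 5 mM MgCl2, 5 mM MnCl2, 100 μM ATP, pH 7.4. Phosphotyrosine detected by Sulfo-TAG anti-phosphotyrosine (45 min) and ECL read-out.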

B1: 4485050: IMAGE clone protein: Fert2, fer (fms/fps related) protein kinase, testis specific 2 (protein, UniProt P70451 1-823, looked up)
Tyrosine-protein kinase Fer: MGFGSDLKNSQEAVLKLQDWELRLLETVKKFMALRIKSDKEYAYTLQNLCNQVDKESTVQVNYVSNVSKSWLLMIQQTEQLSRIMKTHAEDLNSGPLHRLTMMIKDKQQVKKSYVGIHQQIEAEMIKVTKTELEKLKSSYRQLIKEMNSAKEKYKEALAKGKETEKAKERYDKATMKLHMLHNQYVLALKGAQLHQSQYYDTTLPLLLDSVQKMQEEMIKALKGIFDDYSQITSLVTEEIVNVHKEIQMSVEQIDPSTEYNNFIDVHRTTAAKEQEIEFDTSLLEENENLQANEIMWNNLTADSLQVMLKTLAEELTQTQQMLLHKEAAVLELEKRIEESFETCEKKSDIVLLLGQKQALEELKQSVQQLRCTEAKCAAQKALLEQKVQENDGKEPPPVVNYEEDARSVTSMERKERLSKFESIRHSIAGIIKSPKSVLGSSTQVCDVISVGERPLAEHDWYHGAIPRIEAQELLKQQGDFLVRESHGKPGEYVLSVYSDGQRRHFIIQFVDNLYRFEGTGFSNIPQLIDHHFNTKQVITKKSGVVLLNPIPKDKKWVLNHEDVSLGELLGKGNFGEVYKGTLKDKTPVAIKTCKEDLPQELKIKFLQEAKILKQYDHPNIVKLIGVCTQRQPVYIIMELVPGGDFLTFLRKRKDELKLKQLVRFSLDVAAGMLYLESKNCIHRDLAARNCLVGENNTLKISDFGMSRQEDGGVYSSSGLKQIPIKWTAPEALNYGRYSSESDVWSFGILLWETFSLGVCPYPGMTNQQAREQVERGYRMSAPQNCPEEVFTIMMKCWDYKPENRPKFNDLHKELTVIKKMIT
Question: What does the source list for B1?
Answer: fold higher ECL signal than background produced by Mock (Luciferase) (pEY (poly Glu-Tyr); 0.5 to 1 μl of TnT reaction): 1000 to 1100 fold; ECL signal (pEY (poly Glu-Tyr); +EDTA): 1,287; ECL signal (pEY (poly Glu-Tyr); Control (Table 9)): 1,637,307; ECL signal (pEY (poly Glu-Tyr); DNA 0.001 μg/5 μl): 4,432; ECL signal (pEY (poly Glu-Tyr); DNA 0.003 μg/5 μl): 129,797; ECL signal (pEY (poly Glu-Tyr); DNA 0.010 μg/5 μl): 1,440,103; ECL signal (pEY (poly Glu-Tyr); DNA 0.020 μg/5 μl): 1,463,489; ECL signal (pEY (poly Glu-Tyr); DNA 0.040 μg/5 μl): 1,523,121; ECL signal (pEY (poly Glu-Tyr); DNA 0.060 μg/5 μl): 1,553,370; ECL signal (pEY (poly Glu-Tyr); DNA 0.080 μg/5 μl): 1,608,671; ECL signal (pEY (poly Glu-Tyr); DNA 0.100 μg/5 μl): 1,687,039; ECL signal (pEY (poly Glu-Tyr); DNA 0.125 μg/5 μl): 1,626,868; ECL signal (pEY (poly Glu-Tyr); complete reaction): 1,608,671; ECL signal (pEY (poly Glu-Tyr); no Mg, no Mn): 2,851; ECL signal (pEY (poly Glu-Tyr); plasmid +, no pEY): 1,309; ECL signal (pEY (poly Glu-Tyr); plasmid +, no tRNA): 1,752; HTS signal (pEY): 952,661; ECL signal [1]: 1,350,546

B2: 2654352: IMAGE clone protein: Fgfr2, fibroblast growth factor receptor 2 (protein, UniProt P21803 22-821, looked up)
Fibroblast growth factor …: RPSFSLVEDTTLEPEEPPTKYQISQPEAYVVAPGESLELQCMLKDAAVISWTKDGVHLGPNNRTVLIGEYLQIKGATPRDSGLYACTAARTVDSETWIFMVNVTDAISSGDDEDDTDSSEDVVSENRSNQRAPYWTNTEKMEKRLHACPAANTVKFRCPAGGNPTSTMRWLKNGKEFKQEHRIGGYKVRNQHWSLIMESVVPSDKGNYTCLVENEYGSINHTYHLDVVERSPHRPILQAGLPANASTVVGGDVEFVCKVYSDAQPHIQWIKHVEKNGSKNGPDGLPYLKVLKAAGVNTTDKEIEVLYIRNVTFEDAGEYTCLAGNSIGISFHSAWLTVLPAPVREKEITASPDYLEIAIYCIGVFLIACMVVTVIFCRMKTTTKKPDFSSQPAVHKLTKRIPLRRQVTVSAESSSSMNSNTPLVRITTRLSSTADTPMLAGVSEYELPEDPKWEFPRDKLTLGKPLGEGCFGQVVMAEAVGIDKDKPKEAVTVAVKMLKDDATEKDLSDLVSEMEMMKMIGKHKNIINLLGACTQDGPLYVIVEYASKGNLREYLRARRPPGMEYSYDINRVPEEQMTFKDLVSCTYQLARGMEYLASQKCIHRDLAARNVLVTENNVMKIADFGLARDINNIDYYKKTTNGRLPVKWMAPEALFDRVYTHQSDVWSFGVLMWEIFTLGGSPYPGIPVEELFKLLKEGHRMDKPTNCTNELYMMMRDCWHAVPSQRPTFKQLVEDLDRILTLTTNEEYLDLTQPLEQYSPSYPDTSSSCSSGDDSVFSPDPMPYEPCLPQYPHINGSVKT
Question: What does the source list for B2?
Answer: HTS signal (pEY): 296,481; ECL signal [1]: 180,059

B3: 2644960: IMAGE clone protein: Kit, kit oncogene (protein, UniProt P05532 25-979, looked up)
Mast/stem cell growth factor …: SQPSASPGEPSPPSIHPAQSELIVEAGDTLSLTCIDPDFVRWTFKTYFNEMVENKKNEWIQEKAEATRTGTYTCSNSNGLTSSIYVFVRDPAKLFLVGLPLFGKEDSDALVRCPLTDPQVSNYSLIECDGKSLPTDLTFVPNPKAGITIKNVKRAYHRLCVRCAAQRDGTWLHSDKFTLKVRAAIKAIPVVSVPETSHLLKKGDTFTVVCTIKDVSTSVNSMWLKMNPQPQHIAQVKHNSWHRGDFNYERQETLTISSARVDDSGVFMCYANNTFGSANVTTTLKVVEKGFINISPVKNTTVFVTDGENVDLVVEYEAYPKPEHQQWIYMNRTSANKGKDYVKSDNKSNIRYVNQLRLTRLKGTEGGTYTFLVSNSDASASVTFNVYVNTKPEILTYDRLINGMLQCVAEGFPEPTIDWYFCTGAEQRCTTPVSPVDVQVQNVSVSPFGKLVVQSSIDSSVFRHNGTVECKASNDVGKSSAFFNFAFKGNNKEQIQAHTLFTPLLIGFVVAAGAMGIIVMVLTYKYLQKPMYEVQWKVVEEINGNNYVYIDPTQLPYDHKWEFPRNRLSFGKTLGAGAFGKVVEATAYGLIKSDAAMTVAVKMLKPSAHLTEREALMSELKVLSYLGNHMNIVNLLGACTVGGPTLVITEYCCYGDLLNFLRRKRDSFIFSKQEEQAEAALYKNLLHSTEPSCDSSNEYMDMKPGVSYVVPTKTDKRRSARIDSYIERDVTPAIMEDDELALDLDDLLSFSYQVAKGMAFLASKNCIHRDLAARNILLTHGRITKICDFGLARDIRNDSNYVVKGNARLPVKWMAPESIFSCVYTFESDVWSYGIFLWELFSLGSSPYPGMPVDSKFYKMIKEGFRMVSPEHAPAEMYDVMKTCWDADPLKRPTFKQVVQLIEKQISDSTKHIYSNLANCNPNPENPVVVDHSVRVNSVGSSASSTQPLLVHEDA
Question: With B3 as the molecule, how does the HTS signal (pEY) read?
Answer: 9,164

Question: What about the ECL signal [1] of the same molecule?
Answer: 88,966

B4: 3482498: IMAGE clone protein: Tek, endothelial-specific receptor tyrosine kinase (protein, UniProt Q02858 23-1122, looked up)
Angiopoietin-1 receptor: AMDLILINSLPLVSDAETSLTCIASGWHPHEPITIGRDFEALMNQHQDPLEVTQDVTREWAKKVVWKREKASKINGAYFCEGRVRGQAIRIRTMKMRQQASFLPATLTMTVDRGDNVNISFKKVLIKEEDAVIYKNGSFIHSVPRHEVPDILEVHLPHAQPQDAGVYSARYIGGNLFTSAFTRLIVRRCEAQKWGPDCSRPCTTCKNNGVCHEDTGECICPPGFMGRTCEKACEPHTFGRTCKERCSGPEGCKSYVFCLPDPYGCSCATGWRGLQCNEACPSGYYGPDCKLRCHCTNEEICDRFQGCLCSQGWQGLQCEKEGRPRMTPQIEDLPDHIEVNSGKFNPICKASGWPLPTSEEMTLVKPDGTVLQPNDFNYTDRFSVAIFTVNRVLPPDSGVWVCSVNTVAGMVEKPFNISVKVLPEPLHAPNVIDTGHNFAIINISSEPYFGDGPIKSKKLFYKPVNQAWKYIEVTNEIFTLNYLEPRTDYELCVQLARPGEGGEGHPGPVRRFTTASIGLPPPRGLSLLPKSQTALNLTWQPIFTNSEDEFYVEVERRSLQTTSDQQNIKVPGNLTSVLLSNLVPREQYTVRARVNTKAQGEWSEELRAWTLSDILPPQPENIKISNITDSTAMVSWTIVDGYSISSIIIRYKVQGKNEDQHIDVKIKNATVTQYQLKGLEPETTYHVDIFAENNIGSSNPAFSHELRTLPHSPASADLGGGKMLLIAILGSAGMTCITVLLAFLIMLQLKRANVQRRMAQAFQNREEPAVQFNSGTLALNRKAKNNPDPTIYPVLDWNDIKFQDVIGEGNFGQVLKARIKKDGLRMDAAIKRMKEYASKDDHRDFAGELEVLCKLGHHPNIINLLGACEHRGYLYLAIEYAPHGNLLDFLRKSRVLETDPAFAIANSTASTLSSQQLLHFAADVARGMDYLSQKQFIHRDLAARNILVGENYIAKIADFGLSRGQEVYVKKTMGRLPVRWMAIESLNYSVYTTNSDVWSYGVLLWEIVSLGGTPYCGMTCAELYEKLPQGYRLEKPLNCDDEVYDLMRQCWREKPYERPSFAQILVSLNRMLEERKTYVNTTLYEKFTYAGIDCSAEEAA
Question: Which results are given for B4?
Answer: HTS signal (pEY): 10,287; ECL signal [1]: 84,706
